The source of these data is US20230348572A1 (ROSALIND FRANKLIN INSTITUTE, published 2023).

The target of test [1] is T1, SARS-CoV-2 Spike receptor binding domain (RBD, amino acids 330-532) (SARS-CoV-2, UniProt P0DTC2 330-532).
T1 construct: range 330-532
Nature of the test: phage ELISA on biotinylated RBD captured on neutravidin, anti-M13-HRP.

Test [2] concerns the target T2, RBD-Fc (SARS-CoV-2; human, UniProt P0DTC2 330-532).
Test [3] deals with T2, RBD-Fc. This is another data set of the same source.
In test [4] the target is T2, RBD-Fc. This is another data set of the same source.
The target of test [5] is T1, SARS-CoV-2 Spike receptor binding …. Put plainly: ITC, nanobody titrated into RBD, 25 °C, 1:1 stoichiometry. In general terms: Isothermal titration calorimetry measures the heat released or taken up as one component is titrated into another.
Test [6] shares this target. Nature of the test: ITC, RBD in the cell, H11-H4 in the syringe.
Test [7] addresses T2, RBD-Fc. Nature of the test: SPR single-cycle kinetics, RBD-Fc on Protein A chip, nanobody as analyte.
In test [8] the target is T1, SARS-CoV-2 Spike receptor binding ….
The target in test [9] is T2, RBD-Fc. Put plainly: SPR, single-cycle kinetics, RBD-Fc immobilized, H11-D4 as analyte, run i). A general note: Surface plasmon resonance follows binding to a sensor surface in real time, without labels.
The target of test [10] is T2, RBD-Fc. Put plainly: SPR, single-cycle kinetics, RBD-Fc immobilized, H11-D4 as analyte, run ii).
The target in test [11] is T1, SARS-CoV-2 Spike receptor binding …. The source holds these as a separate data set.

Like-named read-outs stand apart in the source and are kept apart here.

B1: NbRBD_B11 (VHH)
VHH: QVQLVESGGGLVQPGGSLRLSCAASGFTFDDYAMSWVRQAPGKGLEWVSNIYSYISTTHYADSVKGRFTISTDNAKNTLYLQMNSLKPEDTAVYYCAARRLDTTDYKYWGQGTQVTVSS
B1: the “ELISA A405” value in [1] is above 1.5.

B2: NbRBD_F9 (VHH)
VHH: QVQLVESGGGLVQPGGSLRVSCAASGFTFSSYFMSWVRQAPGKQRELVATIGDRGNTNYADSVKGRFTISRDNAKNTVYLQMNSLKPEDTAVYYCYSRNRILQHYWGQGTQVTVSS
For the molecule B2, in [1], the “ELISA A405” value is above 1.5.

B3: NbRBD_H11 (VHH)
VHH: QVQLVESGGGLMQAGGSLRLSCAVSGRTFSTAAMGWFRQAPGKEREFVAAIRWSGGSAYYADSVKGRFTISRDKAKNTVYLQMNSLKYEDTAVYYCAQTRVTRSLLSDYATWPYDYWGQGTQVTVSS
notes: also called nanobody H11; Nb H11
A word on the Kd: it is the equilibrium constant for the complex coming apart. Lower therefore signals tighter binding. With B3, the “ELISA A405” value in [1] is above 1.5. Besides, the dissociation constant (Kd) in test [2] was below 1 µM; in [3], 0.378 µM.

B4: NbRBD_H11-H4 (VHH)
VHH: QVQLVESGGGLMQAGGSLRLSCAVSGRTFSTAAMGWFRQAPGKEREFVAAIRWSGGSAYYADSVKGRFTISRDKAKNTVYLQMNSLKYEDTAVYYCAQTHYVSYLLSDYATWPYDYWGQGTQVTVSS
notes: also called nanobody H11-H4
With B4, the equilibrium dissociation constant (Kd) in test [4] is 0.0055 µM; in [5], 0.012 µM; in test [7], around 0.005 µM; in test [8] it was 0.0118 µM. Moreover, the ΔH is -67 kJmol-1 in [6] and -69 kJmol-1 in [8]. Besides, the figures for the ΔS in test [6] and in test [8] were -80 Jmol-1K-1 and -79 Jmol-1K-1, respectively.

B5: NbRBD_H11-D4 (VHH)
VHH: QVQLVESGGGLMQAGGSLRLSCAVSGRTFSTAAMGWFRQAPGKEREFVAAIRWSGGSAYYADSVKGRFTISRDKAKNTVYLQMNSLKYEDTAVYYCARTENVRSLLSDYATWPYDYWGQGTQVTVSS
notes: also called nanobody H11-D4
With B5, the Kd was 0.039 µM in [5]; 0.009 µM in [9]; 0.01 µM in [10]; around 0.01 µM in test [7]; 0.0392 µM in test [11]. In [11], this molecule showed a ΔH of -76.1 kJmol-1. In test [11], this molecule came in with a ΔS of -114 Jmol-1K-1.

B6: NbRBD_C10 (VHH)
VHH: QVQLVESGGGLVQPGGSLRLSCAASGFAFSSYDMSWVRQAPGKGLEWVSAIDSGGGVTYYADSMKGRFTISRDNAKNTVYLQMNSLKPEDTAVYYCNAVDGLGYLEYDYWGQGTQVTVSS
As to B6, in [1], the “ELISA A405” value was above 1.5.

B7: NbRBD_G7 (VHH)
VHH: QVQLVESGGGLVQPGGSLRLSCATSGFTFDTYDMSWVRQAPGNGPEWVSAEDSTGNKFYADSVKGRFAISRDNARNTLYLQMNSLTSEDTAVYYCAKGLRSWGAWGQGTQVTVSS
With B7, the “ELISA A405” value in test [1] is above 1.5.

B8: NbRDB_E11 (VHH)
VHH: QVQLVESGGGLVQPGGSLRLSCAASGFTFSNYAMTWVRQAPGKGLEWISDIGSDGRHPAYADSVKGRYTISRDNAKNTLYLQMNSLKPEDTAMYYCLPGWSTVGTFLDAWGQGTQVTVSS
As to B8, in [1], the “ELISA A405” value is above 1.5.

B9: NbRBD_G11 (VHH)
VHH: QVHLVESGGGLVQPGGSLRLSCAASGFTFDDYGMTWVRQAPGKGLEWVSAVNSGGGTSYADSVKGRFTISRDNAKNTLYLQMNSLKPEDTAVYYCAKRDGSWWGYTTDYWGKGTQVTVSS
B9: in test [1], the “ELISA A405” value was above 1.5.

B10: NbRBD_F5 (VHH)
VHH: QVQLVESGGGLVQAGGSLRLSCAASGTIFRINAMAWYRQAPGKQRELVAIISNGDSGDSTNYADSVKGRFTISRDSAKNTVYLQMNSLKPEDTAVYYCNVEASWPHKYWGQGTQVTVSS
B10: the “ELISA A405” value in test [1] is above 1.5.

B11: NbRBD_C7 (VHH)
VHH: QVQLVESGGGLVQPGGSLRLSCAASGFTFSSYDMSWVRQAPGKGLEWVSGISGSDSTTVYSDSVKDRFTISRDNAKNTLYLQMNKLKPEDTALYYCARPLGQYTSWGQGTQVTVSS
In the case of B11, the “ELISA A405” value in [1] was above 1.5.

B12: NbRBD_D1 (VHH)
VHH: QVQLVESGGGLVQPGGSLRLSCAASGFTFSSYGMSWVRQAPGKGLEWVSGINSGGGSTSYADSVKGRFTISRDNAKNTLYLQMNSLKSEDTAVYYCAKDASEDAGRLYWTDYWGQGTQVTVSS
B12: the “ELISA A405” value in [1] was above 1.5.

B13: NbRBD_A7 (VHH)
VHH: QVQLVESGGGLVQPGGSLRLSCAASGFTFDDYAMSWVRQAPGKGLEWVSAISWNGGGTYYAESMKGRFTISRDNAKNTLYLQMNSLKSEDTAVYYCAKDFHRYGSSTLEYDYWGQGTQVTVSS
For B13, the “ELISA A405” value in test [1] is above 1.5.

B14: NbRBD_B4 (VHH)
VHH: QVQLVESGGGLVQPGGSLRLSCAASGFTFSSYWMYWVRQAPGKGLEWVSVINTGGDTTYYADSVKGRFTISRDNDENTLSLQMNSLKPEDTALYYCARTGVVRGPGDLDAWGQGTQVTVSS
Take B14: in test [1], the “ELISA A405” value was above 1.5.

B15: NbRBD_G9 (VHH)
VHH: QVQLVESGGGLVQPGGSLRLSCAASGFTFYDYHMSWVRQAPGKGLEWVSGIDTGGGRTYAADSVKGRFTISRDNAKNTLYLQMNSLKSEDTALYYCVRDGDARGPDYDYWGQGTMVTVSS
Consider B15, for which the “ELISA A405” value in test [1] is above 1.5.
